Measurements reported in paper PMC5500003.

Columns and labels:
[1] = test system: tau 4R2N (Homo sapiens), P10636-8; assay: EMSA; settings: Hill coefficient 2.8; 26 nM tRNA, 0.5 mM MgCl2, 0.5 mM EDTA, 37 C; native tRNA modifications likely, not described; EMSA: 100 mM sodium acetate pH 7.0, 0.5 mM EDTA, 0.5 mM MgCl2, 0.01% IGEPAL CA-630, RNase inhibitor, 37 C 10 min, TBE 8% gel; ITC: 20 mM ammonium acetate pH 7 …
[2] = test system: tau 4R2N (Homo sapiens), P10636-8; assay: ITC; settings: n = 0.52 tRNA per tau; 20 mM ammonium acetate pH 7; EMSA: 100 mM sodium acetate pH 7.0, 0.5 mM EDTA, 0.5 mM MgCl2, 0.01% IGEPAL CA-630, RNase inhibitor, 37 C 10 min, TBE 8% gel; ITC: 20 mM ammonium acetate pH 7 …
tau K18 (Homo sapiens) = assay: ITC; settings: n = 0.49 tRNA per tau; 20 mM ammonium acetate pH 7; EMSA: 100 mM sodium acetate pH 7.0, 0.5 mM EDTA, 0.5 mM MgCl2, 0.01% IGEPAL CA-630, RNase inhibitor, 37 C 10 min, TBE 8% gel; ITC: 20 mM ammonium acetate pH 7 …

Chain of tau 4R2N (Homo sapiens), P10636-8 (P10636 other isoform, or with tags, fused parts or gaps): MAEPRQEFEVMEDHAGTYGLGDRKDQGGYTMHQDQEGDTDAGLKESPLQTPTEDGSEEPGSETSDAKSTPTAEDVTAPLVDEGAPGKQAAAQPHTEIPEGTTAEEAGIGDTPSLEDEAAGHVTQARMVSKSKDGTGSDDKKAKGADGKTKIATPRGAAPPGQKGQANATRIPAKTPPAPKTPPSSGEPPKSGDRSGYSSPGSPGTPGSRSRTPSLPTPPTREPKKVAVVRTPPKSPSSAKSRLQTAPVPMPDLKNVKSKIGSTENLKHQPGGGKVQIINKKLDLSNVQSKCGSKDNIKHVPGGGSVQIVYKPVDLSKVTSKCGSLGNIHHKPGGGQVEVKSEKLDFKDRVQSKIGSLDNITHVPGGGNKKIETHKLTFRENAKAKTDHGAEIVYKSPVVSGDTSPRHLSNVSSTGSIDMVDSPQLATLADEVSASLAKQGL

| Substance | Kd [1] [nM] | Kd [2] [nM] | Kd (tau K18 (Homo sapiens)) [nM] |
| --- | --- | --- | --- |
| tRNALys, unacetylated | 460 | – | – |
| yeast tRNA (bulk) | – | 735 | 372 |
